Source: the Human Domainome abundance scans (Beltran et al. 2025)
± gives the uncertainty stated by the source.

B1: Mineralocorticoid receptor, residues 600 to 675; numbered along this chain, P08235 (parent)
chain: SKICLVCGDEASGCHYGVVTCGSCKVFFKRAVEGQHNYLCAGRNDCIIDKIRRKNCPACRLQKCLQAGMNLGARKS

Variants of: B1
Assay: abundance fitness (aPCA) (normalised: wild type 0, dead -1); higher = more abundant; growth selection in yeast, the domain comes from the species named
Conditions: Homo sapiens

| Variant | abundance fitness |
| --- | --- |
| SKICLVCGDEASGCHYGVVTCGSCKVFFKRAVEGQHNYLCAGRNRCIIDKIRRKNCPACRLQKCLQAGMNLGARKS [D45R] | -0.024 ± 0.035 |
| SKICLVCGDEASGCHYGVVTCGSCKVFFKRAVEGQHNYLCAGRNVCIIDKIRRKNCPACRLQKCLQAGMNLGARKS [D45V] | -0.074 ± 0.031 |
| SKICLVCGDEASGCHYGVVTCGSCKVFFKRAVEGQHNYLCAGRNTCIIDKIRRKNCPACRLQKCLQAGMNLGARKS [D45T] | -0.104 ± 0.038 |
| SKICLVCGDEASGCHYGVVTCGSCKVFFKRAVEGQHNYLCAGRNWCIIDKIRRKNCPACRLQKCLQAGMNLGARKS [D45W] | -0.249 ± 0.054 |
| SKICLVCGDEASGCHYGVVTCGSCKVFFKRAVEGQHNYLCAGRNYCIIDKIRRKNCPACRLQKCLQAGMNLGARKS [D45Y] | -0.159 ± 0.044 |
| SKICLVCGDEASGCHYGVVTCGSCKVFFKRAVEGQHNYLCAGRNDCIILKIRRKNCPACRLQKCLQAGMNLGARKS [D49L] | -0.221 ± 0.039 |
| SKICLVCGDEASGCHYGVVTCGSCKVFFKRAVEGQHNYLCAGRNDCIIIKIRRKNCPACRLQKCLQAGMNLGARKS [D49I] | -0.274 ± 0.047 |
| SKICLVCGDEASGCHYGVVTCGSCKVFFKRAVEGQHNYLCAGRNDCIIRKIRRKNCPACRLQKCLQAGMNLGARKS [D49R] | -0.287 ± 0.029 |
| SKICLVCGDEASGCHYGVVTCGSCKVFFKRAVEGQHNYLCAGRNDCIISKIRRKNCPACRLQKCLQAGMNLGARKS [D49S] | -0.041 ± 0.028 |
| SKICLVCGDEASGCHYGVVTCGSCKVFFKRAVEGQHNYLCAGRNDCIIFKIRRKNCPACRLQKCLQAGMNLGARKS [D49F] | -0.251 ± 0.038 |
| SKICLVCGDEASGCHYGVVTCGSCKVFFKRAVEGQHNYLCAGRNDCIIMKIRRKNCPACRLQKCLQAGMNLGARKS [D49M] | -0.3 ± 0.079 |
| SKICLVCGDEASGCHYGVVTCGSCKVFFKRAVEGQHNYLCAGRNDCIIKKIRRKNCPACRLQKCLQAGMNLGARKS [D49K] | -0.167 ± 0.049 |
| SKICLVCGDEASGCHYGVVTCGSCKVFFKRAVEGQHNYLCAGRNDCIIAKIRRKNCPACRLQKCLQAGMNLGARKS [D49A] | -0.141 ± 0.031 |
| SKICLVCGDEASGCHYGVVTCGSCKVFFKRAVEGQHNYLCAGRNDCIIEKIRRKNCPACRLQKCLQAGMNLGARKS [D49E] | -0.04 ± 0.038 |
| SKICLVCGDEASGCHYGVVTCGSCKVFFKRAVEGQHNYLCAGRNDCIIHKIRRKNCPACRLQKCLQAGMNLGARKS [D49H] | -0.276 ± 0.054 |
| SKICLVCGDEASGCHYGVVTCGSCKVFFKRAVEGQHNYLCAGRNDCIINKIRRKNCPACRLQKCLQAGMNLGARKS [D49N] | -0.054 ± 0.043 |
| SKICLVCGDEASGCHYGVVTCGSCKVFFKRAVEGQHNYLCAGRNDCIIPKIRRKNCPACRLQKCLQAGMNLGARKS [D49P] | -0.327 ± 0.049 |
| SKICLVCGDEASGCHYGVVTCGSCKVFFKRAVEGQHNYLCAGRNDCITDKIRRKNCPACRLQKCLQAGMNLGARKS [I48T] | -0.026 ± 0.035 |

| Variant | abundance fitness |
| --- | --- |
| SKICLVCGDEASGCHYGVVTCGSCKVFFKRAVEGQHNYLCAGRNDCIMDKIRRKNCPACRLQKCLQAGMNLGARKS [I48M] | 0.021 ± 0.048 |
| SKICLVCGDEASGCHYGVVTCGSCKVFFKRAVEGQHNYLCAGRNDCIYDKIRRKNCPACRLQKCLQAGMNLGARKS [I48Y] | -0.176 ± 0.063 |
| SKICLVCGDEASGCHYGVVTCGSCKVFFKRAVEGQHNYLCAGRNDCIHDKIRRKNCPACRLQKCLQAGMNLGARKS [I48H] | -0.2 ± 0.075 |
| SKICLVCGDEASGCHYGVVTCGSCKVFFKRAVEGQHNYLCAGRNDCIDDKIRRKNCPACRLQKCLQAGMNLGARKS [I48D] | -0.107 ± 0.093 |
| SKICLVCGDEASGCHYGVVTCGSCKVFFKRAVEGQHNYLCAGRNDCIKDKIRRKNCPACRLQKCLQAGMNLGARKS [I48K] | -0.082 ± 0.06 |
| SKICLVCGDEASGCHYGVVTCGSCKVFFKRAVEGQHNYLCAGRNDCIWDKIRRKNCPACRLQKCLQAGMNLGARKS [I48W] | -0.072 ± 0.058 |
| SKICLVCGDEASGCHYGVVTCGSCKVFFKRAVEGQHNYLCAGRNDCIVDKIRRKNCPACRLQKCLQAGMNLGARKS [I48V] | -0.035 ± 0.038 |
| SKICLVCGDEASGCHYGVVTCGSCKVFFKRAVEGQHNYLCAGRNDCIFDKIRRKNCPACRLQKCLQAGMNLGARKS [I48F] | -0.104 ± 0.044 |
| SKICLVCGDEASGCHYGVVTCGSCKVFFKRAVEGQHNYLCAGRNDCISDKIRRKNCPACRLQKCLQAGMNLGARKS [I48S] | -0.122 ± 0.032 |
| SKICLVCGDEASGCHYGVVTCGSCKVFFKRAVEGQHNYLCAGRNDCIEDKIRRKNCPACRLQKCLQAGMNLGARKS [I48E] | -0.002 ± 0.056 |
| SKICLVCGDEASGCHYGVVTCGSCKVFFKRAVEGQHNYLCAGRNDCILDKIRRKNCPACRLQKCLQAGMNLGARKS [I48L] | -0.077 ± 0.03 |
| SKICLVCGDEASGCHYGVVTCGSCKVFFKRAVEGQHNYLCAGRNDCIQDKIRRKNCPACRLQKCLQAGMNLGARKS [I48Q] | -0.013 ± 0.049 |
| SKICLVCGDEASGCHYGVVTCGSCKVFFKRAVEGQHNYLCAGRNDCIGDKIRRKNCPACRLQKCLQAGMNLGARKS [I48G] | -0.033 ± 0.04 |
| SKICLVCGDEASGCHYGVVTCGSCKVFFKRAVEGQHNYLCAGRNDCIADKIRRKNCPACRLQKCLQAGMNLGARKS [I48A] | -0.074 ± 0.037 |
| SKICLVCGDEASGCHYGVVTCGSCKVFFKRAVEGQHNYLCAGRNDCIRDKIRRKNCPACRLQKCLQAGMNLGARKS [I48R] | -0.147 ± 0.036 |
| SKICLVCGDEASGCHYGVVTCGSCKVFFKRAVEGQHNYLCAGRNDCICDKIRRKNCPACRLQKCLQAGMNLGARKS [I48C] | -0.226 ± 0.052 |
| SKICLVCGDEASGCHYGVVTCGSCKVFFKRAVEGQHNYLCAGRNDCINDKIRRKNCPACRLQKCLQAGMNLGARKS [I48N] | -0.015 ± 0.062 |
| SKICLVCGDEASGCHYGVVTCGSCKVFFKRAVEGQHNYLCAGRNDCIPDKIRRKNCPACRLQKCLQAGMNLGARKS [I48P] | -0.131 ± 0.043 |
